According to IntAct's records for PubMed 29858488:

B1: Ceramide transfer protein (Homo sapiens), Q9Y5P4 (parent)
chain: MSDNQSWNSSGSEEDPETESGPPVERCGVLSKWTNYIHGWQDRWVVLKNNALSYYKSEDETEYGCRGSICLSKAVITPHDFDECRFDISVNDSVWYLRAQDPDHRQQWIDAIEQHKTESGYGSESSLRRHGSMVSLVSGASGYSATSTSSFKKGHSLREKLAEMETFRDILCRQVDTLQKYFDACADAVSKDELQRDKVVEDDEDDFPTTRSDGDFLHSTNGNKEKLFPHVTPKGINGIDFKGEAITFKATTAGILATLSHCIELMVKREDSWQKRLDKETEKKRRTEEAYKNAMTELKKKSHFGGPDYEEGPNSLINEEEFFDAVEAALDRQDKIEEQSQSEKVRLHWPTSLPSGDAFSSVGTHRFVQKPYSRSSSMSSIDLVSASDDVHRFSSQVEEMVQNHMTYSLQDVGGDANWQLVVEEGEMKVYRREVEENGIVLDPLKATHAVKGVTGHEVCNYFWNVDVRNDWETTIENFHVVETLADNAIIIYQTHKRVWPASQRDVLYLSVIRKIPALTENDPETWIVCNFSVDHDSAPLNNRCVRAKINVAMICQTLVSPPEGNQEISRDNILCKITYVANVNPGGWAPASVLRAVAKREYPKFLKRFTSYVQEKTAGKPILF
partner: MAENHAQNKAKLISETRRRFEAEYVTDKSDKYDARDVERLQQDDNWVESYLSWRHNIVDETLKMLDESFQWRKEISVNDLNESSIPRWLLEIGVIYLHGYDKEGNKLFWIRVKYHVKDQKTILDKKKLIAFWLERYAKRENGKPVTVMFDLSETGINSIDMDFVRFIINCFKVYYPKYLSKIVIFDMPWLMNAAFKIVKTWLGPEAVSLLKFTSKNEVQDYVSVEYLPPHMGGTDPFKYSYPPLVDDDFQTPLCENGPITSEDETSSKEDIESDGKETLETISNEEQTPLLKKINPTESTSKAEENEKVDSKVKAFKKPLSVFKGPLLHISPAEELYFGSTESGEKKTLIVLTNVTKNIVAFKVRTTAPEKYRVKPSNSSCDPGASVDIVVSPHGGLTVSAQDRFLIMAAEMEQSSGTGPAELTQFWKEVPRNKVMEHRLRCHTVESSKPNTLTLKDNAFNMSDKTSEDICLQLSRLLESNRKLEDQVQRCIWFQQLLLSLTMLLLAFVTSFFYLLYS
B2: Motile sperm domain-containing protein 2 (Homo sapiens), Q8NHP6 (parent)
chain: B1 partner
partner: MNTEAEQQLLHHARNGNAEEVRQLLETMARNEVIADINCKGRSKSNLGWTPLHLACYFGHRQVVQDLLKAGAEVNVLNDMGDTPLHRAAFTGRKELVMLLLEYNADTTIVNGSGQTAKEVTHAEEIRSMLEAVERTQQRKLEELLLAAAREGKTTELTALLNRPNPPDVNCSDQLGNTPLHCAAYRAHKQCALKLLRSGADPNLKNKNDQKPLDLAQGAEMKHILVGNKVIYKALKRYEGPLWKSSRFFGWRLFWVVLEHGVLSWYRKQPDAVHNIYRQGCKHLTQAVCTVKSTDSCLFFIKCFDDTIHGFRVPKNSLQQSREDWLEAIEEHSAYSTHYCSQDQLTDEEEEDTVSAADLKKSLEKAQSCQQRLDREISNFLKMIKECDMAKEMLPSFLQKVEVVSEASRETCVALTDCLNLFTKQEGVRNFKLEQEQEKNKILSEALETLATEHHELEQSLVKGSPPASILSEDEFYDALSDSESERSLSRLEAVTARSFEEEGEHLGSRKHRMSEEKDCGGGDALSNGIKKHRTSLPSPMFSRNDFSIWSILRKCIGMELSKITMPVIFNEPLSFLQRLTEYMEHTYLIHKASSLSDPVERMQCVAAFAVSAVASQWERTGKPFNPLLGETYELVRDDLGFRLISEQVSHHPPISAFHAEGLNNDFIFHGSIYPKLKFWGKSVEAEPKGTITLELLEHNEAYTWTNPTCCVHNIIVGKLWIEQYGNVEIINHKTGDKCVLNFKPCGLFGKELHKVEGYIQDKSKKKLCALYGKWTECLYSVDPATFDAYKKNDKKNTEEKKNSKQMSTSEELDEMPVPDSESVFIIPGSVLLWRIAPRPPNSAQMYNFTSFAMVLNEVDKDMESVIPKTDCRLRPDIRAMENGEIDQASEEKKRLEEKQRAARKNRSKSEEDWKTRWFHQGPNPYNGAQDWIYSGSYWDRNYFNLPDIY
B3: STARD3 N-terminal-like protein (Homo sapiens), O95772 (parent)
chain: MNHLPEDMENALTGSQSSHASLRNIHSINPTQLMARIESYEGREKKGISDVRRTFCLFVTFDLLFVTLLWIIELNVNGGIENTLEKEVMQYDYYSSYFDIFLLAVFRFKVLILAYAVCRLRHWWAIALTTAVTSAFLLAKVILSKLFSQGAFGYVLPIISFILAWIETWFLDFKVLPQEAEEENRLLIVQDASERAALIPGGLSDGQFYSPPESEAGSEEAEEKQDSEKPLLEL
partner: B1 partner
B4: Motile sperm domain-containing protein 2 (Homo sapiens), Q8NHP6 (parent)
chain: B1 partner
partner: B3 chain
B5: Motile sperm domain-containing protein 2 (Homo sapiens), Q8NHP6 (parent)
chain: B1 partner
partner: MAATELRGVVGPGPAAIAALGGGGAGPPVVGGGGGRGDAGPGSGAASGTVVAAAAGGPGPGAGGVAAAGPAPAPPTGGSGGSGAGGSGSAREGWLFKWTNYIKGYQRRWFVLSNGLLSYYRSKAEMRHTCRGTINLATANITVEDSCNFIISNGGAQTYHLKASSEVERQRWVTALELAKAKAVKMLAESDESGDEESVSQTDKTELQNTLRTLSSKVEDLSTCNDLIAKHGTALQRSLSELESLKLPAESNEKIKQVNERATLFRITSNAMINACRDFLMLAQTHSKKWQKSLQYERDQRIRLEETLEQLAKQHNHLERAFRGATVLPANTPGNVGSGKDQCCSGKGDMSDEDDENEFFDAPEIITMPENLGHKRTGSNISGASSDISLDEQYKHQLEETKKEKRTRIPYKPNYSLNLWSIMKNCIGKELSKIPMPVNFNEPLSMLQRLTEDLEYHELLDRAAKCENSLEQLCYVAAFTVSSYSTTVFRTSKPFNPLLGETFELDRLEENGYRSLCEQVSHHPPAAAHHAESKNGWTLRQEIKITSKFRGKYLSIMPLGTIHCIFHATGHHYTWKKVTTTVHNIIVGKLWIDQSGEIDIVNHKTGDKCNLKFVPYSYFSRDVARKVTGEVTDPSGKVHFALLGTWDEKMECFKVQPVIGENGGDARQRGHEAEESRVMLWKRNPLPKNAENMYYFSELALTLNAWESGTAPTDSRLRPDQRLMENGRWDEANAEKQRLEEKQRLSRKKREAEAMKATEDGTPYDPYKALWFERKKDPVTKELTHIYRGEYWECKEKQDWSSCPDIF
B6: Vesicle-associated membrane protein-associated protein A (Homo sapiens), Q9P0L0 (parent)
chain: MASASGAMAKHEQILVLDPPTDLKFKGPFTDVVTTNLKLRNPSDRKVCFKVKTTAPRRYCVRPNSGIIDPGSTVTVSVMLQPFDYDPNEKSKHKFMVQTIFAPPNTSDMEAVWKEAKPDELMDSKLRCVFEMPNENDKLNDMEPSKAVPLNASKQDGPMPKPHSVSLNDTETRKLMEECKRLQGEMMKLSEENRHLRDEGLRLRKVAHSDKPGSTSTASFRDNVTSPLPSLLVVIAAIFIGFFLGKFIL
partner: B2 partner

Variants of: B1
Settings: with mspd2_human MOSPD2, Q8NHP6

effect of a mutation on the interaction	Variant
disrupting interaction strength	D324A

Variants of: B2
Settings: with osbl1_human OSBPL1A

effect of a mutation on the interaction	Variant
disrupting interaction strength	MAENHAQNKAKLISETRRRFEAEYVTDKSDKYDARDVERLQQDDNWVESYLSWRHNIVDETLKMLDESFQWRKEISVNDLNESSIPRWLLEIGVIYLHGYDKEGNKLFWIRVKYHVKDQKTILDKKKLIAFWLERYAKRENGKPVTVMFDLSETGINSIDMDFVRFIINCFKVYYPKYLSKIVIFDMPWLMNAAFKIVKTWLGPEAVSLLKFTSKNEVQDYVSVEYLPPHMGGTDPFKYSYPPLVDDDFQTPLCENGPITSEDETSSKEDIESDGKETLETISNEEQTPLLKKINPTESTSKAEENEKVDSKVKAFKKPLSVFKGPLLHISPAEELYFGSTESGEKKTLIVLTNVTKNIVAFKVRTTAPEKYRVKPSNSSCDPGASVDIVVSPHGGLTVSAQDDFDIMAAEMEQSSGTGPAELTQFWKEVPRNKVMEHRLRCHTVESSKPNTLTLKDNAFNMSDKTSEDICLQLSRLLESNRKLEDQVQRCIWFQQLLLSLTMLLLAFVTSFFYLLYS [R404D;L406D]

Variants of: B3
Settings: with mspd2_human MOSPD2, Q8NHP6

effect of a mutation on the interaction	Variant
disrupting interaction strength	MNHLPEDMENALTGSQSSHASLRNIHSINPTQLMARIESYEGREKKGISDVRRTFCLFVTFDLLFVTLLWIIELNVNGGIENTLEKEVMQYDYYSSYFDIFLLAVFRFKVLILAYAVCRLRHWWAIALTTAVTSAFLLAKVILSKLFSQGAFGYVLPIISFILAWIETWFLDFKVLPQEAEEENRLLIVQDASERAALIPGGLSDGQAASPPESEAGSEEAEEKQDSEKPLLEL [F208A;Y209A]

Variants of: B4
Settings: with str3n_human STARD3NL

effect of a mutation on the interaction	Variant
disrupting interaction strength	MAENHAQNKAKLISETRRRFEAEYVTDKSDKYDARDVERLQQDDNWVESYLSWRHNIVDETLKMLDESFQWRKEISVNDLNESSIPRWLLEIGVIYLHGYDKEGNKLFWIRVKYHVKDQKTILDKKKLIAFWLERYAKRENGKPVTVMFDLSETGINSIDMDFVRFIINCFKVYYPKYLSKIVIFDMPWLMNAAFKIVKTWLGPEAVSLLKFTSKNEVQDYVSVEYLPPHMGGTDPFKYSYPPLVDDDFQTPLCENGPITSEDETSSKEDIESDGKETLETISNEEQTPLLKKINPTESTSKAEENEKVDSKVKAFKKPLSVFKGPLLHISPAEELYFGSTESGEKKTLIVLTNVTKNIVAFKVRTTAPEKYRVKPSNSSCDPGASVDIVVSPHGGLTVSAQDDFDIMAAEMEQSSGTGPAELTQFWKEVPRNKVMEHRLRCHTVESSKPNTLTLKDNAFNMSDKTSEDICLQLSRLLESNRKLEDQVQRCIWFQQLLLSLTMLLLAFVTSFFYLLYS [R404D;L406D]

Variants of: B5
Settings: with osbp1_human OSBP

effect of a mutation on the interaction	Variant
disrupting interaction strength	MAENHAQNKAKLISETRRRFEAEYVTDKSDKYDARDVERLQQDDNWVESYLSWRHNIVDETLKMLDESFQWRKEISVNDLNESSIPRWLLEIGVIYLHGYDKEGNKLFWIRVKYHVKDQKTILDKKKLIAFWLERYAKRENGKPVTVMFDLSETGINSIDMDFVRFIINCFKVYYPKYLSKIVIFDMPWLMNAAFKIVKTWLGPEAVSLLKFTSKNEVQDYVSVEYLPPHMGGTDPFKYSYPPLVDDDFQTPLCENGPITSEDETSSKEDIESDGKETLETISNEEQTPLLKKINPTESTSKAEENEKVDSKVKAFKKPLSVFKGPLLHISPAEELYFGSTESGEKKTLIVLTNVTKNIVAFKVRTTAPEKYRVKPSNSSCDPGASVDIVVSPHGGLTVSAQDDFDIMAAEMEQSSGTGPAELTQFWKEVPRNKVMEHRLRCHTVESSKPNTLTLKDNAFNMSDKTSEDICLQLSRLLESNRKLEDQVQRCIWFQQLLLSLTMLLLAFVTSFFYLLYS [R404D;L406D]

Variants of: B6
Settings: with osbl1_human OSBPL1A

effect of a mutation on the interaction	Variant
disrupting interaction strength	MASASGAMAKHEQILVLDPPTDLKFKGPFTDVVTTNLKLRNPSDRKVCFKVKTTAPRRYCVRPNSGIIDPGSTVTVSVMLQPFDYDPNEKSKHDFDVQTIFAPPNTSDMEAVWKEAKPDELMDSKLRCVFEMPNENDKLNDMEPSKAVPLNASKQDGPMPKPHSVSLNDTETRKLMEECKRLQGEMMKLSEENRHLRDEGLRLRKVAHSDKPGSTSTASFRDNVTSPLPSLLVVIAAIFIGFFLGKFIL [K94D;M96D]
